# Test results reported in publication PMC10783122, “Loss of Bacteroides thetaiotaomicron bile acid-altering enzymes impacts bacterial fitness and the global metabolic transcriptome” (Microbiology Spectrum, 2023).
# What was measured:
# Assay in all cases: purified protein
# Format in all cases: biochemical, Bacteroides thetaiotaomicron
# Conditions in all cases: 5 mM NAD+, 10 mM MOPS, 37 °C, 0.2 nM enzyme
# purified protein [1] = substrate: C[C@H](CCC(=O)NCC(=O)O)[C@H]1CC[C@H]2[C@@H]3[C@H](O)C[C@@H]4C[C@H](O)CC[C@]4(C)[C@H]3CC[C@]12C
# purified protein [2] = substrate: C[C@H](CCC(=O)NCCS(=O)(=O)O)[C@H]1CC[C@H]2[C@@H]3[C@H](O)C[C@@H]4C[C@H](O)CC[C@]4(C)[C@H]3CC[C@]12C
# purified protein [3] = substrate: C[C@H](CCC(=O)O)[C@H]1CC[C@H]2[C@@H]3[C@H](O)C[C@@H]4C[C@H](O)CC[C@]4(C)[C@H]3CC[C@]12C
# purified protein [4] = substrate: C[C@H](CCC(=O)O)[C@H]1CC[C@H]2[C@@H]3[C@H](O)C[C@@H]4C[C@H](O)CC[C@]4(C)[C@H]3C[C@H](O)[C@]12C
protein,measurement,setting,value
"HSDHa (BT_1911), 7α-hydroxysteroid dehydrogenase (Bacteroides thetaiotaomicron VPI-5482) (protein, full-length codon-optimized gene, pETite C-His, C-terminal hexahistidine tag, E. coli Rosetta (DE3) pLysS, cobalt resin purified) MKRFENKVVVITGAAGGIGEATTRRIVSEGGKVVIADLSQERADKLAAELTQAGADVRPIYFSATELQSCKELVDFAMKEYGQIDVLINNVGGTDPKRDLNIEKLDIDYFDEVFHLNLCCTMYLSQQVIPIMTTHGGGNIVNVASISGLTADANGTLYGASKAGVINLTKYIATQMGKKNIRCNAVAPGLVLTPAALDNLNEEVRNIFLGQCATPYLGEPEDVAATIAFLASNDARYITGQTIVVDGGLTIHNPTVELS",Km,purified protein [1],342.2 ± 104.1 µM
same,kcat,purified protein [1],4090 ± 292 s⁻¹
same,Km,purified protein [2],301.2 ± 60.4 µM
same,kcat,purified protein [2],4520 ± 681 s⁻¹
same,Km,purified protein [3],203.4 ± 24.3 µM
same,kcat,purified protein [3],4580 ± 375 s⁻¹
same,Km,purified protein [4],649.2 ± 167.6 µM
same,kcat,purified protein [4],4070 ± 195 s⁻¹
